In paper PMC7425896, “Polypeptides derived from α-Synuclein binding partners to prevent α-Synuclein fibrils interaction with and take-up by cells” (PLoS ONE, 2020) one finds Kd data, which are given here for one substance.

The target of the series is T1, αSyn fibrils (Homo sapiens, UniProt P37840).
T1 construct: made in house
The series can be described thus: Filter trap (cellulose acetate filter retardation) assay of ATTO488-labelled Hsc70 and subdomains binding to αSyn fibrils. The settings on record: labelled:unlabelled 1:50, 0–2 μM (domains 0–5 μM), αSyn fibrils 1 μM, PBS, 1h RT, fluorescence, filtered in triplicate, 2 to 3 independent experiments, read-out: KD of ATTO488-labelled polypeptides for αSyn fibrils. The protocol:
The KD for Hsc70, SBD, SBDβ and SBD-lid interaction with αSyn fibrils were measured as follow. Hsc70 and its subdomains were first labeled by addition of the aminoreactive fluorescent dye ATTO488 (Invitrogen, Carlsbad, CA, USA) using a protein:dye molar ratio of 1:5. The reaction was stopped by adding Tris-HCl pH 7.5 (20 mM final concentration). The unreacted fluorophore was removed by NAP5 desalting column. Under these conditions the majority of primary amines unaffected by the labelling as 0.05 to 0.08 dye molecules were incorporated on average within Hsc70 or its subdomains, as assessed by absorbance spectroscopy. Binding of ATTO488-labeled polypeptides to fibrillar αSyn was then followed by a filter retardation assay where fibrils and associated proteins are retained on a membrane. The different ATTO488-labeled polypeptides were diluted with their unlabeled counterpart (labeled:unlabeled polypeptides ratio of 1:50) at different final concentrations (0–2 μM) and incubated with or without αSyn fibrils (1 μM) in PBS for 1h at RT. 200 μl of each sample were filtered in triplicate through cellulose acetate membranes (0.2 μm pore size, Millipore Corp., Bedford, MA) using a 48-slot slot-blot filtration apparatus (GE Healthcare). The amount of labeled polypeptide retained on the membrane was visualized using a ChemiDocTM MP (BioRad). Images were processed and quantified using Image Lab.

Take “Hsc70-ATTO488: Hsc70 labeled with the aminoreactive fluorescent dye ATTO488”: the dissociation constant (Kd) (in general, the free concentration of one partner at which half of the binding sites on the other are occupied at equilibrium, for simple one-to-one binding) turned out to be 490 ± 20 nM.
